# Results: the supplement of paper PMC10567573
# B1: DCAF4 (parent)
# chain: TTKCVRQYEGHVNEYAYLPLHVHE
# B2: ZNF449 (parent)
# chain: RIHSGEEPHKCPECGKRFLRSSDL
# Variants of: B1
# Assay: protein stability index of a GFP-peptide fusion (GPS, HEK-293T) (PSI 1-6); higher = more stable
# Conditions: c terminus: a fixed tail appended
# 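Further: lentivirally expressed fusions sorted by FACS into six bins by GFP to DsRed ratio, PSI derived from sequencing read proportions per bin multiplied by bin number.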
row,Variant,protein stability index
1,TVKCVRQYEGHVNEYAYLPLHVHE,2.46
2,TEKCVRQYEGHVNEYAYLPLHVHE,3.23
3,TMKCVRQYEGHVNEYAYLPLHVHE,2.52
4,TIKCVRQYEGHVNEYAYLPLHVHE,2.19
5,TSKCVRQYEGHVNEYAYLPLHVHE,2.74
6,TWKCVRQYEGHVNEYAYLPLHVHE,2.43
7,TLKCVRQYEGHVNEYAYLPLHVHE,2.15
8,TDKCVRQYEGHVNEYAYLPLHVHE,3.24
9,TFKCVRQYEGHVNEYAYLPLHVHE,2.47
10,TGKCVRQYEGHVNEYAYLPLHVHE,2.69
11,TPKCVRQYEGHVNEYAYLPLHVHE,3.05
12,TCKCVRQYEGHVNEYAYLPLHVHE,2.43
13,THKCVRQYEGHVNEYAYLPLHVHE,2.32
14,TQKCVRQYEGHVNEYAYLPLHVHE,2.41
15,TKKCVRQYEGHVNEYAYLPLHVHE,2.64
16,TRKCVRQYEGHVNEYAYLPLHVHE,2.41
17,TYKCVRQYEGHVNEYAYLPLHVHE,2.01
18,TNKCVRQYEGHVNEYAYLPLHVHE,2.99
19,TAKCVRQYEGHVNEYAYLPLHVHE,2.47
20,STKCVRQYEGHVNEYAYLPLHVHE,3.81
21,LTKCVRQYEGHVNEYAYLPLHVHE,2.99
22,ATKCVRQYEGHVNEYAYLPLHVHE,2.67
23,VTKCVRQYEGHVNEYAYLPLHVHE,2.22
24,QTKCVRQYEGHVNEYAYLPLHVHE,2.74
25,MTKCVRQYEGHVNEYAYLPLHVHE,2.19
26,FTKCVRQYEGHVNEYAYLPLHVHE,1.74

row,Variant,protein stability index
1,PTKCVRQYEGHVNEYAYLPLHVHE,2.48
2,DTKCVRQYEGHVNEYAYLPLHVHE,3.45
3,HTKCVRQYEGHVNEYAYLPLHVHE,2.65
4,YTKCVRQYEGHVNEYAYLPLHVHE,1.69
5,GTKCVRQYEGHVNEYAYLPLHVHE,2.99
6,ETKCVRQYEGHVNEYAYLPLHVHE,3.14
7,ITKCVRQYEGHVNEYAYLPLHVHE,2
8,NTKCVRQYEGHVNEYAYLPLHVHE,2.4
9,KTKCVRQYEGHVNEYAYLPLHVHE,2.84
10,CTKCVRQYEGHVNEYAYLPLHVHE,1.9
11,WTKCVRQYEGHVNEYAYLPLHVHE,1.92
12,RTKCVRQYEGHVNEYAYLPLHVHE,2.22
13,TTKSVRQYEGHVNEYAYLPLHVHE,3.25
14,TTKTVRQYEGHVNEYAYLPLHVHE,3.42
15,TTKWVRQYEGHVNEYAYLPLHVHE,2.29
16,TTKKVRQYEGHVNEYAYLPLHVHE,2.83
17,TTKVVRQYEGHVNEYAYLPLHVHE,3.08
18,TTKRVRQYEGHVNEYAYLPLHVHE,2.69
19,TTKGVRQYEGHVNEYAYLPLHVHE,2.67
20,TTKMVRQYEGHVNEYAYLPLHVHE,3.45
21,TTKYVRQYEGHVNEYAYLPLHVHE,2.48
22,TTKEVRQYEGHVNEYAYLPLHVHE,3.59
23,TTKQVRQYEGHVNEYAYLPLHVHE,2.94
24,TTKNVRQYEGHVNEYAYLPLHVHE,3.48
25,TTKAVRQYEGHVNEYAYLPLHVHE,3.14
26,TTKIVRQYEGHVNEYAYLPLHVHE,3.13

row,Variant,protein stability index
1,TTKFVRQYEGHVNEYAYLPLHVHE,2.25
2,TTKDVRQYEGHVNEYAYLPLHVHE,3.76
3,TTKPVRQYEGHVNEYAYLPLHVHE,3.1
4,TTKHVRQYEGHVNEYAYLPLHVHE,3.19
5,TTKLVRQYEGHVNEYAYLPLHVHE,2.86
6,TTKCVKQYEGHVNEYAYLPLHVHE,2.63
7,TTKCVAQYEGHVNEYAYLPLHVHE,3.02
8,TTKCVCQYEGHVNEYAYLPLHVHE,2.53
9,TTKCVFQYEGHVNEYAYLPLHVHE,1.8
10,TTKCVEQYEGHVNEYAYLPLHVHE,3.12
11,TTKCVDQYEGHVNEYAYLPLHVHE,2.87
12,TTKCVHQYEGHVNEYAYLPLHVHE,2.52
13,TTKCVGQYEGHVNEYAYLPLHVHE,2.58
14,TTKCVIQYEGHVNEYAYLPLHVHE,2.11
15,TTKCGRQYEGHVNEYAYLPLHVHE,2.31
16,TTKCHRQYEGHVNEYAYLPLHVHE,2.19
17,TTKCQRQYEGHVNEYAYLPLHVHE,2.55
18,TTKCARQYEGHVNEYAYLPLHVHE,2.67
19,TTKCTRQYEGHVNEYAYLPLHVHE,2.69
20,TTKCYRQYEGHVNEYAYLPLHVHE,1.82
21,TTKCRRQYEGHVNEYAYLPLHVHE,1.76
22,TTKCMRQYEGHVNEYAYLPLHVHE,2.18
23,TTKCLRQYEGHVNEYAYLPLHVHE,2.84
24,TTKCNRQYEGHVNEYAYLPLHVHE,2.27
25,TTKCWRQYEGHVNEYAYLPLHVHE,2.46
26,TTKCDRQYEGHVNEYAYLPLHVHE,3.34

row,Variant,protein stability index
1,TTKCFRQYEGHVNEYAYLPLHVHE,2.24
2,TTKCIRQYEGHVNEYAYLPLHVHE,2.17
3,TTKCSRQYEGHVNEYAYLPLHVHE,1.82
4,TTKCCRQYEGHVNEYAYLPLHVHE,2
5,TTKCKRQYEGHVNEYAYLPLHVHE,1.99
6,TTKCPRQYEGHVNEYAYLPLHVHE,2.95
7,TTKCERQYEGHVNEYAYLPLHVHE,3.29
8,TTFCVRQYEGHVNEYAYLPLHVHE,1.55
9,TTYCVRQYEGHVNEYAYLPLHVHE,1.6
10,TTVCVRQYEGHVNEYAYLPLHVHE,2.02
11,TTSCVRQYEGHVNEYAYLPLHVHE,2.71
12,TTICVRQYEGHVNEYAYLPLHVHE,1.73
13,TTPCVRQYEGHVNEYAYLPLHVHE,3.58
14,TTMCVRQYEGHVNEYAYLPLHVHE,2.07
15,TTECVRQYEGHVNEYAYLPLHVHE,3.58
16,TTLCVRQYEGHVNEYAYLPLHVHE,2.6
17,TTTCVRQYEGHVNEYAYLPLHVHE,2.71
18,TTDCVRQYEGHVNEYAYLPLHVHE,3.56
19,TTNCVRQYEGHVNEYAYLPLHVHE,2.98
20,TTQCVRQYEGHVNEYAYLPLHVHE,3.25
21,TTWCVRQYEGHVNEYAYLPLHVHE,1.82
22,TTHCVRQYEGHVNEYAYLPLHVHE,2.71
23,TTGCVRQYEGHVNEYAYLPLHVHE,2.89
24,TTCCVRQYEGHVNEYAYLPLHVHE,2.62
25,TTRCVRQYEGHVNEYAYLPLHVHE,2.12
26,TTACVRQYEGHVNEYAYLPLHVHE,3.11

# Variants of: B2
# Assay: as above
# Conditions: c terminus: a fixed tail appended
row,Variant,protein stability index
1,RIHSGEEPHKCPECGKRFLRSIDL,2.77
2,RIHSGEEPHKCPECGKRFLRSKDL,2.57
3,RIHSGEEPHKCPECGKRFLRSWDL,1.94
4,RIHSGEEPHKCPECGKRFLRSYDL,3.01
5,RIHSGEEPHKCPECGKRFLRSDDL,4.06
6,RIHSGEEPHKCPECGKRFLRSRDL,3.02
7,RIHSGEEPHKCPECGKRFLRSPDL,3.5
8,RIHSGEEPHKCPECGKRFLRSCDL,3.94
9,RIHSGEEPHKCPECGKRFLRSADL,2.93
10,RIHSGEEPHKCPECGKRFLRSNDL,3.3
11,RIHSGEEPHKCPECGKRFLRSFDL,2.77
12,RIHSGEEPHKCPECGKRFLRSMDL,2.28
13,RIHSGEEPHKCPECGKRFLRSVDL,3.58
14,RIHSGEEPHKCPECGKRFLRSEDL,3.62
15,RIHSGEEPHKCPECGKRFLRSHDL,3.56
16,RIHSGEEPHKCPECGKRFLRSTDL,3.05
17,RIHSGEEPHKCPECGKRFLRSLDL,2.67
18,RIHSGEEPHKCPECGKRFLRSGDL,3.74
19,RIHSGEEPHKCPECGKRFLISSDL,2.91
20,RIHSGEEPHKCPECGKRFLHSSDL,2.89
21,RIHSGEEPHKCPECGKRFLVSSDL,2.27

row,Variant,protein stability index
1,RIHSGEEPHKCPECGKRFLWSSDL,2.31
2,RIHSGEEPHKCPECGKRFLNSSDL,4.21
3,RIHSGEEPHKCPECGKRFLSSSDL,3.82
4,RIHSGEEPHKCPECGKRFLQSSDL,4.3
5,RIHSGEEPHKCPECGKRFLTSSDL,3.17
6,RIHSGEEPHKCPECGKRFLLSSDL,3.32
7,RIHSGEEPHKCPECGKRFLFSSDL,3.35
8,RIHSGEEPHKCPECGKRFLESSDL,3.91
9,RIHSGEEPHKCPECGKRFLYSSDL,2.86
10,RIHSGEEPHKCPECGKRFLMSSDL,3.41
11,RIHSGEEPHKCPECGKRFLKSSDL,3.25
12,RIHSGEEPHKCPECGKRFLPSSDL,3.99
13,RIHSGEEPHKCPECGKRFLRSSAL,2.23
14,RIHSGEEPHKCPECGKRFLRSSVL,1.73
15,RIHSGEEPHKCPECGKRFLRSSKL,2.77
16,RIHSGEEPHKCPECGKRFLRSSIL,1.61
17,RIHSGEEPHKCPECGKRFLRSSEL,2.52
18,RIHSGEEPHKCPECGKRFLRSSRL,1.51
19,RIHSGEEPHKCPECGKRFLRSSCL,2.75
20,RIHSGEEPHKCPECGKRFLRSSSL,2.46
21,RIHSGEEPHKCPECGKRFLRSSQL,1.86

row,Variant,protein stability index
1,RIHSGEEPHKCPECGKRFLRSSNL,2.8
2,RIHSGEEPHKCPECGKRFLRSSFL,2.04
3,RIHSGEEPHKCPECGKRFLRSSHL,3.41
4,RIHSGEEPHKCPECGKRFLRSSPL,2.29
5,RIHSGEEPHKCPECGKRFLRSSTL,2.7
6,RIHSGEEPHKCPECGKRFLRSSLL,2.16
7,RIHSGEEPHKCPECGKRFLRSSYL,1.72
8,RIHSGEEPHKCPECGKRFLRPSDL,2.86
9,RIHSGEEPHKCPECGKRFLRKSDL,4.17
10,RIHSGEEPHKCPECGKRFLRDSDL,4.25
11,RIHSGEEPHKCPECGKRFLRHSDL,3.44
12,RIHSGEEPHKCPECGKRFLRTSDL,3.56
13,RIHSGEEPHKCPECGKRFLRLSDL,2.48
14,RIHSGEEPHKCPECGKRFLRCSDL,3.69
15,RIHSGEEPHKCPECGKRFLRYSDL,3.22
16,RIHSGEEPHKCPECGKRFLRMSDL,2.24
17,RIHSGEEPHKCPECGKRFLRISDL,3.04
18,RIHSGEEPHKCPECGKRFLRQSDL,2.75
19,RIHSGEEPHKCPECGKRFLRFSDL,2.15
20,RIHSGEEPHKCPECGKRFLRRSDL,2.65
21,RIHSGEEPHKCPECGKRFLRGSDL,3.75

row,Variant,protein stability index
1,RIHSGEEPHKCPECGKRFLRASDL,3.31
2,RIHSGEEPHKCPECGKRFLRNSDL,3.56
3,RIHSGEEPHKCPECGKRFLRSSDD,4.61
4,RIHSGEEPHKCPECGKRFLRSSDA,3.92
5,RIHSGEEPHKCPECGKRFLRSSDF,3.3
6,RIHSGEEPHKCPECGKRFLRSSDV,3.31
7,RIHSGEEPHKCPECGKRFLRSSDS,3.88
8,RIHSGEEPHKCPECGKRFLRSSDW,2.93
9,RIHSGEEPHKCPECGKRFLRSSDK,3.96
10,RIHSGEEPHKCPECGKRFLRSSDH,3.63
11,RIHSGEEPHKCPECGKRFLRSSDE,4.42
12,RIHSGEEPHKCPECGKRFLRSSDN,3.89
13,RIHSGEEPHKCPECGKRFLRSSDT,3.79
14,RIHSGEEPHKCPECGKRFLRSSDQ,4.91
15,RIHSGEEPHKCPECGKRFLRSSDC,3.63
16,RIHSGEEPHKCPECGKRFLRSSDR,2.29
17,RIHSGEEPHKCPECGKRFLRSSDP,4.12
18,RIHSGEEPHKCPECGKRFLRSSDY,3.29
19,RIHSGEEPHKCPECGKRFLRSSDG,3.82
20,RIHSGEEPHKCPECGKRFLRSSDI,2.5
21,RIHSGEEPHKCPECGKRFLRSSDM,3.41
